According to patent US11702666B2, “Cell-based assay for determining activity in the retinoblastoma pathway” (Medical Diagnostic Laboratories, LLC, priority 2017, dated 2023):
“Also recorded” adds a separate entry of the source.

Test system: Rb/E2F1-Dp-1 complex
Assay: CDK4 mutant activity / drug resistance in NanoBiT assay, stable cell line #11
Type: cell-based, human
Details: for luciferase signal compared to WT CDK4 (in words): no drug; for Observed drug resist.: Palbociclib/Ribociclib, KD = kinase dead
Protocol: A linear expression cassette of mutated CDK4 or CDK6 was generated by PCR mediated overlapping extension method. A pair of forward and reverse primers containing the targeted mutations was designed. The mutated codon was located in the middle of a primer flanked by 18-21 nucleotides on each side. Two PCRs (named as PCR #1 and PCR #2 in FIG. 1) were performed using UF-CMV forward and mutated reverse primers, or mutated forward and BGH-UR primers. The PCR products were cleaned up by ExoSAP-IT® (Affymetrix) to remove unconsumed dNTPs and primers. The treated PCR products were mixed together followed by dilution with water. A second round of PCR was performed using the diluted PCR mixture, and the UF and UR primers (FIG. 1). The amplified products were gel-purified. The DNA concentration was quantitated by the optical density at 260 nm using Nanodrop. The targeted mutations were incorporated in the CDK4 or CDK6 genes during the PCR mediated overlapping extension method. The introduced mutations were confirmed by the DNA sequencing.
To examine the ability of the assay to detect variants in CDK4 or CDK6 that affect function, kinase dead mutants and COSMIC (Catalogue Of Somatic Mutations in cancer) unknown mutants were created. For comparison, hyperactive CDK4 or CDK6 mutants known to be hyperactive due to less binding to natural inhibitor p16 were also created. The mutations in CDK4 or CDK6 were created by site-directed mutagenesis. WT or mutated CDK4 or CDK6 along with the CyclinD1 and SB-Rb were co-transfected, under similar conditions as previously indicated (see FIG. 9).
To examine the specificity of the assay, particular CDK4 kinase dead mutants were created. Modifications to D158 were made by changing aspartate to nonpolar alanine (D158A) or positively charged arginine (D158R). […] The mutations in CDK4 were created by site-directed mutagenesis. WT or mutated CDK4 along with the CyclinD1 and SB-Rb was co-transfected into the #11 cell line, under the same conditions as previously indicated. […] Kinase dead mutants have the high signal due to inability to phosphorylate Rb.
Computer modeling was used to reveal the drug-binding pocket and predict drug-resistant mutants. The mutations in CDK4 and CDK6 were created by site-directed mutagenesis. WT or mutated CDK4 or CDK6 along with the CyclinD1 and SB-Rb was co-transfected into #11 cell line, under the same conditions as previously indicated. […] Dose response curves are presented on FIG. 13A and FIG. 13B. Activity of other mutants was very similar to the WT or KD.
CDK4 and CDK6 mutants with known function and unknown function taken from the COSMIC database were analyzed in the present assay and are summarized in Table 7A and Table 7B. The mutants were classified according to their activity. Table 7A and Table 7B also show the number of counts per mutant in the COSMIC database, type of cancer, and luciferase activity compared to the WT (being 100%).

[1] = predicted drug resistant CDK4 mutants, relative to WT
[2] = predicted drug resistant CDK4 mutants

Molecule | Luc. activity (/wt) [1] | other results
CDK4 R24C: hyperactive CDK4 mutant, COSMIC database (protein, UniProt P11802 2-303, looked up, variant R24C) Cyclin-dependent kinase 4: ATSRYEPVAEIGVGAYGTVYKACDPHSGHFVALKSVRVPNGGGGGGGLPISTVREVALLRRLEAFEHPNVVRLMDVCATSRTDREIKVTLVFEHVDQDLRTYLDKAPPPGLPAETIKDLMRQFLRGLDFLHANCIVHRDLKPENILVTSGGTVKLADFGLARIYSYQMALTPVVVTLWYRAPEVLLQSTYATPVDMWSVGCIFAEMFRRKPLFCGNSEADQLGKIFDLIGLPPEDDWPRDVSLPRGAFPPRGPRPVQSVVPEMEESGAQLLLEMLTFNPHKRISAFRALQHSYLHKDEGNPE | – | Luc. activity (/wt) (CDK4 mutants, compared to the WT (being 100%)): 91%; luciferase signal compared to WT CDK4 (in words) (CDK4 mutants): a little bit lower basal signal than WT
CDK4 L49R: predicted drug resistant CDK4 mutant (protein, UniProt P11802 2-303, looked up, variant L49R) Cyclin-dependent kinase 4: ATSRYEPVAEIGVGAYGTVYKARDPHSGHFVALKSVRVPNGGGGGGGRPISTVREVALLRRLEAFEHPNVVRLMDVCATSRTDREIKVTLVFEHVDQDLRTYLDKAPPPGLPAETIKDLMRQFLRGLDFLHANCIVHRDLKPENILVTSGGTVKLADFGLARIYSYQMALTPVVVTLWYRAPEVLLQSTYATPVDMWSVGCIFAEMFRRKPLFCGNSEADQLGKIFDLIGLPPEDDWPRDVSLPRGAFPPRGPRPVQSVVPEMEESGAQLLLEMLTFNPHKRISAFRALQHSYLHKDEGNPE | 281% | –
CDK4 A157S: predicted drug resistant CDK4 mutant (protein, UniProt P11802 2-303, looked up, variant A157S) Cyclin-dependent kinase 4: ATSRYEPVAEIGVGAYGTVYKARDPHSGHFVALKSVRVPNGGGGGGGLPISTVREVALLRRLEAFEHPNVVRLMDVCATSRTDREIKVTLVFEHVDQDLRTYLDKAPPPGLPAETIKDLMRQFLRGLDFLHANCIVHRDLKPENILVTSGGTVKLSDFGLARIYSYQMALTPVVVTLWYRAPEVLLQSTYATPVDMWSVGCIFAEMFRRKPLFCGNSEADQLGKIFDLIGLPPEDDWPRDVSLPRGAFPPRGPRPVQSVVPEMEESGAQLLLEMLTFNPHKRISAFRALQHSYLHKDEGNPE | 195% | –
CDK4 T102R: predicted drug resistant CDK4 mutant (protein, UniProt P11802 2-303, looked up, variant T102R) Cyclin-dependent kinase 4: ATSRYEPVAEIGVGAYGTVYKARDPHSGHFVALKSVRVPNGGGGGGGLPISTVREVALLRRLEAFEHPNVVRLMDVCATSRTDREIKVTLVFEHVDQDLRRYLDKAPPPGLPAETIKDLMRQFLRGLDFLHANCIVHRDLKPENILVTSGGTVKLADFGLARIYSYQMALTPVVVTLWYRAPEVLLQSTYATPVDMWSVGCIFAEMFRRKPLFCGNSEADQLGKIFDLIGLPPEDDWPRDVSLPRGAFPPRGPRPVQSVVPEMEESGAQLLLEMLTFNPHKRISAFRALQHSYLHKDEGNPE | 156% | –
CDK4 F93I: predicted drug resistant CDK4 mutant (protein, UniProt P11802 2-303, looked up, variant F93I) Cyclin-dependent kinase 4: ATSRYEPVAEIGVGAYGTVYKARDPHSGHFVALKSVRVPNGGGGGGGLPISTVREVALLRRLEAFEHPNVVRLMDVCATSRTDREIKVTLVIEHVDQDLRTYLDKAPPPGLPAETIKDLMRQFLRGLDFLHANCIVHRDLKPENILVTSGGTVKLADFGLARIYSYQMALTPVVVTLWYRAPEVLLQSTYATPVDMWSVGCIFAEMFRRKPLFCGNSEADQLGKIFDLIGLPPEDDWPRDVSLPRGAFPPRGPRPVQSVVPEMEESGAQLLLEMLTFNPHKRISAFRALQHSYLHKDEGNPE | 157% | Observed drug resist. [2]: showed drug resistance; also recorded: Resistant
CDK4 G18A: predicted drug resistant CDK4 mutant (protein, UniProt P11802 2-303, looked up, variant G18A) Cyclin-dependent kinase 4: ATSRYEPVAEIGVGAYATVYKARDPHSGHFVALKSVRVPNGGGGGGGLPISTVREVALLRRLEAFEHPNVVRLMDVCATSRTDREIKVTLVFEHVDQDLRTYLDKAPPPGLPAETIKDLMRQFLRGLDFLHANCIVHRDLKPENILVTSGGTVKLADFGLARIYSYQMALTPVVVTLWYRAPEVLLQSTYATPVDMWSVGCIFAEMFRRKPLFCGNSEADQLGKIFDLIGLPPEDDWPRDVSLPRGAFPPRGPRPVQSVVPEMEESGAQLLLEMLTFNPHKRISAFRALQHSYLHKDEGNPE | 97.5% | –
CDK4 I51F: predicted drug resistant CDK4 mutant (protein, UniProt P11802 2-303, looked up, variant I51F) Cyclin-dependent kinase 4: ATSRYEPVAEIGVGAYGTVYKARDPHSGHFVALKSVRVPNGGGGGGGLPFSTVREVALLRRLEAFEHPNVVRLMDVCATSRTDREIKVTLVFEHVDQDLRTYLDKAPPPGLPAETIKDLMRQFLRGLDFLHANCIVHRDLKPENILVTSGGTVKLADFGLARIYSYQMALTPVVVTLWYRAPEVLLQSTYATPVDMWSVGCIFAEMFRRKPLFCGNSEADQLGKIFDLIGLPPEDDWPRDVSLPRGAFPPRGPRPVQSVVPEMEESGAQLLLEMLTFNPHKRISAFRALQHSYLHKDEGNPE | 160% | –
CDK4 F931 T102K: CDK4 double mutant F93I and T102K (protein, UniProt P11802 2-303, looked up, variant F93I T102K) Cyclin-dependent kinase 4: ATSRYEPVAEIGVGAYGTVYKARDPHSGHFVALKSVRVPNGGGGGGGLPISTVREVALLRRLEAFEHPNVVRLMDVCATSRTDREIKVTLVIEHVDQDLRKYLDKAPPPGLPAETIKDLMRQFLRGLDFLHANCIVHRDLKPENILVTSGGTVKLADFGLARIYSYQMALTPVVVTLWYRAPEVLLQSTYATPVDMWSVGCIFAEMFRRKPLFCGNSEADQLGKIFDLIGLPPEDDWPRDVSLPRGAFPPRGPRPVQSVVPEMEESGAQLLLEMLTFNPHKRISAFRALQHSYLHKDEGNPE | 152% | Observed drug resist. [2]: Resistant
CDK4 A33S: predicted drug resistant CDK4 mutant (protein, UniProt P11802 2-303, looked up, variant A33S) Cyclin-dependent kinase 4: ATSRYEPVAEIGVGAYGTVYKARDPHSGHFVSLKSVRVPNGGGGGGGLPISTVREVALLRRLEAFEHPNVVRLMDVCATSRTDREIKVTLVFEHVDQDLRTYLDKAPPPGLPAETIKDLMRQFLRGLDFLHANCIVHRDLKPENILVTSGGTVKLADFGLARIYSYQMALTPVVVTLWYRAPEVLLQSTYATPVDMWSVGCIFAEMFRRKPLFCGNSEADQLGKIFDLIGLPPEDDWPRDVSLPRGAFPPRGPRPVQSVVPEMEESGAQLLLEMLTFNPHKRISAFRALQHSYLHKDEGNPE | 182% | –
CDK4 I12L: predicted drug resistant CDK4 mutant (protein, UniProt P11802 2-303, looked up, variant I12L) Cyclin-dependent kinase 4: ATSRYEPVAELGVGAYGTVYKARDPHSGHFVALKSVRVPNGGGGGGGLPISTVREVALLRRLEAFEHPNVVRLMDVCATSRTDREIKVTLVFEHVDQDLRTYLDKAPPPGLPAETIKDLMRQFLRGLDFLHANCIVHRDLKPENILVTSGGTVKLADFGLARIYSYQMALTPVVVTLWYRAPEVLLQSTYATPVDMWSVGCIFAEMFRRKPLFCGNSEADQLGKIFDLIGLPPEDDWPRDVSLPRGAFPPRGPRPVQSVVPEMEESGAQLLLEMLTFNPHKRISAFRALQHSYLHKDEGNPE | 126% | –
CDK4 D158D: CDK4 control with one nucleotide substitution that did not change the amino acid (protein, UniProt P11802 2-303, looked up, silent D158D nucleotide variant) Cyclin-dependent kinase 4: ATSRYEPVAEIGVGAYGTVYKARDPHSGHFVALKSVRVPNGGGGGGGLPISTVREVALLRRLEAFEHPNVVRLMDVCATSRTDREIKVTLVFEHVDQDLRTYLDKAPPPGLPAETIKDLMRQFLRGLDFLHANCIVHRDLKPENILVTSGGTVKLADFGLARIYSYQMALTPVVVTLWYRAPEVLLQSTYATPVDMWSVGCIFAEMFRRKPLFCGNSEADQLGKIFDLIGLPPEDDWPRDVSLPRGAFPPRGPRPVQSVVPEMEESGAQLLLEMLTFNPHKRISAFRALQHSYLHKDEGNPE | – | luciferase signal compared to WT CDK4 (in words) (CDK4 mutants): the same activity as a WT
CDK4 T102K: predicted drug resistant CDK4 mutant (protein, UniProt P11802 2-303, looked up, variant T102K) Cyclin-dependent kinase 4: ATSRYEPVAEIGVGAYGTVYKARDPHSGHFVALKSVRVPNGGGGGGGLPISTVREVALLRRLEAFEHPNVVRLMDVCATSRTDREIKVTLVFEHVDQDLRKYLDKAPPPGLPAETIKDLMRQFLRGLDFLHANCIVHRDLKPENILVTSGGTVKLADFGLARIYSYQMALTPVVVTLWYRAPEVLLQSTYATPVDMWSVGCIFAEMFRRKPLFCGNSEADQLGKIFDLIGLPPEDDWPRDVSLPRGAFPPRGPRPVQSVVPEMEESGAQLLLEMLTFNPHKRISAFRALQHSYLHKDEGNPE | 162% | Observed drug resist. [2]: showed drug resistance; also recorded: Resistant
